In paper PMC8809517, “Cofactor-independent RNA editing by a synthetic S-type PPR protein”:

T1: GFP-9S library array, motif 4 ND N98L;D124S (synthetic construct, N98L;D124S)
T1 chain: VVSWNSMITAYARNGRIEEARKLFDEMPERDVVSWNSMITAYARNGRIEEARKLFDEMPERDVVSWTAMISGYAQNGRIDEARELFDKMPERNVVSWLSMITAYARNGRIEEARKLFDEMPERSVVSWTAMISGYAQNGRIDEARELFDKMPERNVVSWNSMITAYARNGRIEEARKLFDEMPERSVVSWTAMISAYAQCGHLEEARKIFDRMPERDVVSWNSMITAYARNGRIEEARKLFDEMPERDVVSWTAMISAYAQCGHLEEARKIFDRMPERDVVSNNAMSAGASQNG

T2: GFP-9S library array, motif 4 ND N98P;D124I (synthetic construct, N98P;D124I)
T2 chain: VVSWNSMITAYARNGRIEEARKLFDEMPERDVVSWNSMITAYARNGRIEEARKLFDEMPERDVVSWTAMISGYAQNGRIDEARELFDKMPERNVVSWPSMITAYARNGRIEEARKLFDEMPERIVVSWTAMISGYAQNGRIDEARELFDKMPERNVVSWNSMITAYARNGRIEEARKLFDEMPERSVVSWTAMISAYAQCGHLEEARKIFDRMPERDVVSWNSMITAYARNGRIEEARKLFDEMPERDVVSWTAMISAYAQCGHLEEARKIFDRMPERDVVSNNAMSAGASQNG

T3: GFP-9S library array, motif 4 ND D124G (synthetic construct, D124G)
T3 chain: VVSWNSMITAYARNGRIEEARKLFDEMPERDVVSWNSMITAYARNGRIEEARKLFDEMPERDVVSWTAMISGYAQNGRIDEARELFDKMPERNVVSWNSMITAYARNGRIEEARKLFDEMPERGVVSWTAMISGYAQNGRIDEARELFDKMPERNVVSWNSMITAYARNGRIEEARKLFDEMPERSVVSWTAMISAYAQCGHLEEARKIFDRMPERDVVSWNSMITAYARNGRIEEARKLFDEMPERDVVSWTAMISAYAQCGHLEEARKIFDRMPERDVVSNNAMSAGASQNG

T4: GFP-9S library array, motif 4 ND N98T;D124Y (synthetic construct, N98T;D124Y)
T4 chain: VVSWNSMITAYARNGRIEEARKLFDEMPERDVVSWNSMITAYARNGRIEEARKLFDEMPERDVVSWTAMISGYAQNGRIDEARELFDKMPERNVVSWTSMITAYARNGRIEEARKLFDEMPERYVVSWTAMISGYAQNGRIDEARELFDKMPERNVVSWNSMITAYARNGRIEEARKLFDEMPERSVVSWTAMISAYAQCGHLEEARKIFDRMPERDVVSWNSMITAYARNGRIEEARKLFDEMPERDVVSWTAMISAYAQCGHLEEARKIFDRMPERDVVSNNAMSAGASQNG

T5: GFP-9S library array, motif 4 ND N98K;D124Y (synthetic construct, N98K;D124Y)
T5 chain: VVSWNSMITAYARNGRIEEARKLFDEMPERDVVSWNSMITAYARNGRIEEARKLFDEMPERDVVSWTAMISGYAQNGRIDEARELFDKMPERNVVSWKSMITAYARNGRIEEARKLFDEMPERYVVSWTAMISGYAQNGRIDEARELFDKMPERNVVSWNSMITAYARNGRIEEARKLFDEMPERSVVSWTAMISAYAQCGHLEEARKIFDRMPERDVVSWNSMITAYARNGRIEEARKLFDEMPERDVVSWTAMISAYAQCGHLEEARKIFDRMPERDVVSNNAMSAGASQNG


Tests used:
Test in all cases: high-throughput RNA pulldown from lysate on Ni-NTA beads; HRP: 50 mM Tris pH 8, 150 mM NaCl, 1 mM beta-mercaptoethanol, 50 ug/ml BSA, 3 ug/ml yeast RNA, 0.5% heparin; ITC and FP: Tris pH 8, 200 mM KCl, 5% glycerol; MST: 50 mM Tris pH 8, 200 mM NaCl, 1 mM DTT, BSA, heparin, 0.05% Tween 20
Details in all cases: tags: N-terminal His-eGFP
[1] = biological target: T1, GFP-9S library array, motif 4 ND …
[2] = biological target: T2, GFP-9S library array, motif 4 ND …
[3] = biological target: T3, GFP-9S library array, motif 4 ND D124G
[4] = biological target: T4, GFP-9S library array, motif 4 ND …
[5] = biological target: T5, GFP-9S library array, motif 4 ND …

| Binder | Kd ([1]; label: 5' Cy5) [nM] | Kd ([2]; label: 5' Cy5) [nM] | Kd ([3]; label: 5' Cy5) [nM] | Kd ([4]; label: 5' Cy5) [nM] | Kd ([5]; label: 5' Cy5) [nM] | Kd ([1]; label: 5' IRDye 800CW) [nM] | Kd ([2]; label: 5' IRDye 800CW) [nM] | Kd ([3]; label: 5' IRDye 800CW) [nM] | Kd ([4]; label: 5' IRDye 800CW) [nM] | Kd ([5]; label: 5' IRDye 800CW) [nM] |
| --- | --- | --- | --- | --- | --- | --- | --- | --- | --- | --- |
| AUUAGACGUGA (ssRNA) [Cy5-rpoA-G] | 111 | 127 | 445 | 105 | 49.3 | – | – | – | – | – |
| AUUACACGUGA (ssRNA) [Cy5-rpoA] | 139 | 109 | 30.7 | 145 | 62.5 | – | – | – | – | – |
| AUUAAACGUGA (ssRNA) [IR-rpoA-A] | – | – | – | – | – | 120 | 272 | 136 | 90.9 | 115 |
| AUUAUACGUGA (ssRNA) [IR-rpoA-U] | – | – | – | – | – | 37.2 | 187 | 30.7 | 147 | 128 |
